In the DeepSol protein solubility set:

Test: soluble on expression in E. coli; label from the status in PepcDB or PDB records

Sequence | soluble on expression in E. coli
MTPSPEASEGPCVSKLRNEPLGALTPYVGVVDGPEVKKSKKIHGGDSAILGTYKMQSRFNRGVLLMVNIMDYPDQNRRRIGAEKDSKSLIHLFQELNFTIFPYGNVNQDQFFKLLTMVTSSSYVQNTECFVMVLMTHGNSVEGKEKVEFRDGSVVDMQKIKDHFQTAKCPYLVNKPKVLMFPFARGDEYDLGHPKNQGNLMEPVYTAQEEKWPDTQTEGIPSPSTNVPSLADTLVCYANTPGYVTHRDLDTGSWYIQKFCQVMADHAHDTDLEDILKKTSEAVGNKRTKKGSMQTGAYDNLGFNKKLYFNPGFFNE | soluble
MRKEVEQLALMGAMPDEADERITAALVDEYADLLGKIVKPVTLDEAHILIKLFPPTALYGIEWTLLHLIESVYSEIKSLEYRELINECNSTEFKKMLVQRLNNSQQKKITNEAG | not soluble
MDCVVGRKNSAAVLLVLSERKTREEIILKLPDKTQESVIKAIDELERKYRRKFREKFKTITVDNGTEFLDYRGIEKSKTEPGKDRTKVYYAHPYSSWERGTNENINKLIRRFIPKGTDISKVSKAKIKSIERWINEYPRRMFGYRSAIEMAV | soluble
METFRTLLAKAALGNGISSTAYDTAWVAKLGQLDDELSDLALNWLCERQLPDGSWGAEFPFCYEDRLLSTLAAMISLTSNKHRRRRAAQVEKGLLALKNLTSGAFEGPQLDIKDATVGFELIAPTLMAEAARLGLAICHEESILGELVGVREQKLRKLGGSKINKHITAAFSVELAGQDGVGMLDVDNLQETNGSVKYSPSASAYFALHVKPGDKRALAYISSIIQAGDGGAPAFYQAEIFEIVWSLWNLSRTDIDLSDPEIVRTYLPYLDHVEQHWVRGRGVGWTGNSTLEDCDTTSVAYDVLSKFGRSPDIGAVLQFEDADWFRTYFHEVGPSISTNVHVLGALKQAGYDKCHPRVRKVLEFIRSSKEPGRFCWRDKWHRSAYYTTAHLICAASNYDDALCSDAIGWILNTQRPDGSWGFFDGQATAEETAYCIQALAHWQRHSGTSLSAQISRAGGWLSQHCEPPYAPLWIAKTLYCSATVVKAAILSALRLVDESNQ | not soluble
MSSDIDELRREIDIVDVISEYLNLEKVGSNYRTNCPFHPDDTPSFYVSPSKQIFKCFGCGVGGDAIKFVSLYEDISYFEAALELAKRYGKKLDLEKISKDEKVYVALDRVCDFYRESLLKNREASEYVKSRGIDPKVARKFDLGYAPSSEALVKVLKENDLLEAYLETKNLLSPTKGVYRDLFLRRVVIPIKDPRGRVIGFGGRRIVEDKSPKYINSPDSRVFKKGENLFGLYEAKEYIKEEGFAILVEGYFDLLRLFSEGIRNVVAPLGTALTQNQANLLSKFTKKVYILYDGDDAGRKAMKSAIPLLLSAGVEVYPVYLPEGYDPDEFIKEFGKEELRRLINSSGELFETLIKTARENLEEKTREFRYYLGFISDGVRRFALASEFHTKYKVPMEILLMKIEKNSQEKEIKLSFKEKIFLKGLIELKPKIDLEVLNLSPELKELAVNALNGEEHLLPKEVLEYQVDNLEKLFNNILRDLQKSGKKRKKRGLKNVNT | soluble
MIRSMTAYARREIKGEWGSATWEMRSVNQRYLETYFRLPEQFRSLEPVVRERIRSRLTRGKVECTLRYEPDVSAQGELILNEKLAKQLVTAANWVKMKSDEGEINPVDILRWPGVMAAQEQDLDAIAAEILAALDGTLDDFIVARETEGQALKALIEQRLEGVTAEVVKVRAHMPEILQWQRERLVAKLEDAQVQLENNRLEQELVLLAQRIDVAEELDRLEAHVKETYNILKKKEAVGRRLDFMMQEFNRESNTLASKSINAEVTNSAIELKVLIEQMREQIQNIE | not soluble
MESQLPKFLKEPEKYSRLRLLEALQELYLSIEMLKEGYSRNSASKLFLSWKALLSSIVVTNFGKIMETKKKEGKEDEIKWYMRIGYSAPTTGLIGIARDLENLGFKGLVNLTTAMLGIHRYAYNGLDEDISPFHSRSEAIISIKGLIKAEVEIVGSMKFGDEEKELFEKIKRELNNILEHHHHHH | not soluble
MTATLSWIDEITMTELERNPYPVYERLRAEAPLAYVPVLGSFVATTADLCRTIANSPDFEGIITKAGGRTFGHPAVIGVNGEIHRDLRSMVDPALQPSEVDRWVDGLVRPIARRYVEQFENDGKADLVSQYCEPVSVRALGDLLGLNEVSSDTLRDWFHRLSNSFTNAGVDADGEFTNPEGFVQGDEAKAEIRAVVDPLIDKWTVHPDDSAISHWLHDGMPEGQVRDREYIYPTLFVYLLGAMQEPGHGMASTLVGLFTRPEQLEAVIDEPALIPRAISEGMRWTSPIWSATARISTKDVTLGDVFLPEGSVVLLSYGSANHDTAVYDAPSDYDMTRPPLPHLAFGSGNHACAGIYFANHVCRIGLEELFEAIPNLERDSGADVEFWGWGFRGPTALRATWEV | not soluble
